4 molecules from article PMC3753316, “The Interaction between Factor H and Von Willebrand Factor” (PLoS ONE, 2013) can be followed below.

Assay [1] has as its target recombinant His-tagged VWF-A1 domain (amino acids Q1238-D1471) (human). The assay can be described thus: SPR; Biacore 3000, 25 C; VWF-A1 immobilised (1500 RU); fH 40 to 640 nM, 20 uL/min; fitted to two-state model; apparent KD.
In assay [2] the target is recombinant VWF-A2 as used in the ELISA and Biacore experiments (human) (UniProt P04275). The assay can be described thus: SPR; Biacore 3000, 25 C; VWF-A2 (1000 RU) or VWF-A3 (800 RU) immobilised; fH 40 to 640 nM, 20 uL/min; for VWF-A2 responses at equilibrium fitted to a one-site binding isotherm. A general note: Surface plasmon resonance follows binding to a sensor surface in real time, without labels.

The target of assay [3] is plasma purified human VWF (human). Description: SPR; Biacore 3000, 25 C; VWF immobilised by amine coupling (2100 RU); fH 5 to 320 nM in HBS with 50 uM ZnCl2, 30 uL/min; global fit to two-state model; apparent KD.
Assay [4] deals with T1, plasma purified human factor H (human, UniProt P08603 19-1231).
T1 construct: complement factor H, human, purified from plasma (150 kD, 20 SCRs); also the endogenous protein in normal serum; also called fH; complement factor H; source: bought: Complement Technology Inc., plasma purified; endogenous, normal human serum
T1 sequence (P08603 19-1231): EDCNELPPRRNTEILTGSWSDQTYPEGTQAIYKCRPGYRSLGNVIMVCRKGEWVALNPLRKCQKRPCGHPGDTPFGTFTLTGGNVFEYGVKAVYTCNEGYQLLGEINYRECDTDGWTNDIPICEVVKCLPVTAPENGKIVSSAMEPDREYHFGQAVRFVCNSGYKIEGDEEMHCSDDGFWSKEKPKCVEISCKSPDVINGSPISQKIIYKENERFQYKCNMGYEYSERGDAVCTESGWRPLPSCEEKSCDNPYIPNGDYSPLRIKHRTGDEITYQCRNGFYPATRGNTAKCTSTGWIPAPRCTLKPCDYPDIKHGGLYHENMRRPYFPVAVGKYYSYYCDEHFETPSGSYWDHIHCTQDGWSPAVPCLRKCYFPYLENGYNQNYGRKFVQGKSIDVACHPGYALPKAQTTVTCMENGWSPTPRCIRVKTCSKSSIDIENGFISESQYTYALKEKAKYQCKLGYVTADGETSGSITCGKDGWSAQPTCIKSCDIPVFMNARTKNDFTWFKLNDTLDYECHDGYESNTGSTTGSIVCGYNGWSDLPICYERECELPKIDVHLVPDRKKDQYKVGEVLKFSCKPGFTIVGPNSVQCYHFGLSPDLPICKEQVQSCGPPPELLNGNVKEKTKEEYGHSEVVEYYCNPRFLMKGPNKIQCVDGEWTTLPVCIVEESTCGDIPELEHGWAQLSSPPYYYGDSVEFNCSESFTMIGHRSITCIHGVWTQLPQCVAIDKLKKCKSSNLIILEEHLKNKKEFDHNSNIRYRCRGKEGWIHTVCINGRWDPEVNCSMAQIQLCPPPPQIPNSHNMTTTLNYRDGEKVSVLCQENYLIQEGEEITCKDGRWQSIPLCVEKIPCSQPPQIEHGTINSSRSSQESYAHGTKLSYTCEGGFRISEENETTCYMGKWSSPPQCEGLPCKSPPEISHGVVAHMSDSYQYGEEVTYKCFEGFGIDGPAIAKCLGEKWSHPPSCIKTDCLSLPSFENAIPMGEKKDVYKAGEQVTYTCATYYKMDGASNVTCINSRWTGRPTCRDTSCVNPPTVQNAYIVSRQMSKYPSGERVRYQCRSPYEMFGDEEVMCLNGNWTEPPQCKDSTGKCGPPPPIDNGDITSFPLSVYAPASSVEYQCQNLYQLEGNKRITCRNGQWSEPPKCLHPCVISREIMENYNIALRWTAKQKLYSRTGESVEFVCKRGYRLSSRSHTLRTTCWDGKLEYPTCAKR
Description: co-IP; plasma-purified fH (30 nM) incubated with His-tagged VWF-A1, -A2 (E. coli or HEK 293), -A3 or Myc-tagged VWF-BC (100 nM); precipitated with anti-fH antibody or IgG; blot anti-VWF. The following applies: both partners purified.

In assay [5] the target is T2, recombinant full-length wild type human fH (F4 with SCRs 1-20, amino acids M1-R1231) (human, UniProt P08603 19-1231).
T2 construct: signal peptide in the construct; complement factor H, human, SCRs 1-20, amino acids M1-R1231, in pSecTag2B His tag vector; also called full-length recombinant fH; source: HEK 293, stably transfected, secreted into serum-free medium, purified (Ni-NTA)
T2 sequence (P08603 19-1231): as above
The assay can be described thus: pull-down; GST-VWF-A2 (100 nM) incubated with recombinant F4, F3, F2 or F1 (30 nM each); glutathione agarose beads, overnight 4 C; blot polyclonal or monoclonal (90X) anti-fH. The following applies: both partners purified.

Assay [6] deals with T3, truncated fH F3 with SCRs 1-15, amino acids M1-G928 (human, UniProt P08603 19-928).
T3 construct: signal peptide in the construct; complement factor H, human, SCRs 1-15, amino acids M1-G928, in pSecTag2B His tag vector; source: HEK 293, stably transfected, secreted into serum-free medium, purified (Ni-NTA)
T3 sequence (P08603 19-928): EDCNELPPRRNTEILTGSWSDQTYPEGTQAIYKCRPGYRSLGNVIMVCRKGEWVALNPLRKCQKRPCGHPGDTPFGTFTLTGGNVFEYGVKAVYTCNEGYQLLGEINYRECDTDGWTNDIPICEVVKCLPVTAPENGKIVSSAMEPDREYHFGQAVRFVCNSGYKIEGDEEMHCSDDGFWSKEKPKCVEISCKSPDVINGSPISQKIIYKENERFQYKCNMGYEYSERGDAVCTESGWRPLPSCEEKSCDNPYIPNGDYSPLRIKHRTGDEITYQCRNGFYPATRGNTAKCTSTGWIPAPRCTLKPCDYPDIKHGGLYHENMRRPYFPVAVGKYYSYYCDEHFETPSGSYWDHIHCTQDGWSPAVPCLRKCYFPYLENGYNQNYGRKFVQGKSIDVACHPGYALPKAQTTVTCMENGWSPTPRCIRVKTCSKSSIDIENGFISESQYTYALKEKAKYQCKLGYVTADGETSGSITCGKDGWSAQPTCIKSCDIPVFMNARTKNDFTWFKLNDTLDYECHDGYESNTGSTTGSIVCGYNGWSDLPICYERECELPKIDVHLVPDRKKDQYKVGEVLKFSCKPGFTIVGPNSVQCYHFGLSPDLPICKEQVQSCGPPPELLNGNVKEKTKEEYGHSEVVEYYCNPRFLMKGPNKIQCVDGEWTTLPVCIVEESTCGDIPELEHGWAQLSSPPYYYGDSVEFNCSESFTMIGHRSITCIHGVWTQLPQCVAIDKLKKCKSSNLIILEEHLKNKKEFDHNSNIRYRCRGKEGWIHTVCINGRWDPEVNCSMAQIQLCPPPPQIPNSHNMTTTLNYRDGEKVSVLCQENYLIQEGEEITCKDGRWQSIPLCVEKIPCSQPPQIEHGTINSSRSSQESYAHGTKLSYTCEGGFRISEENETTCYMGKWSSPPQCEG
The assay is described as above. The following applies: both partners purified.

The target in assay [7] is T4, truncated fH F2 with SCRs 1-10, amino acids M1-E625 (human, UniProt P08603 19-625).
T4 construct: signal peptide in the construct; complement factor H, human, SCRs 1-10, amino acids M1-E625, in pSecTag2B His tag vector; source: HEK 293, stably transfected, secreted into serum-free medium, purified (Ni-NTA)
T4 sequence (P08603 19-625): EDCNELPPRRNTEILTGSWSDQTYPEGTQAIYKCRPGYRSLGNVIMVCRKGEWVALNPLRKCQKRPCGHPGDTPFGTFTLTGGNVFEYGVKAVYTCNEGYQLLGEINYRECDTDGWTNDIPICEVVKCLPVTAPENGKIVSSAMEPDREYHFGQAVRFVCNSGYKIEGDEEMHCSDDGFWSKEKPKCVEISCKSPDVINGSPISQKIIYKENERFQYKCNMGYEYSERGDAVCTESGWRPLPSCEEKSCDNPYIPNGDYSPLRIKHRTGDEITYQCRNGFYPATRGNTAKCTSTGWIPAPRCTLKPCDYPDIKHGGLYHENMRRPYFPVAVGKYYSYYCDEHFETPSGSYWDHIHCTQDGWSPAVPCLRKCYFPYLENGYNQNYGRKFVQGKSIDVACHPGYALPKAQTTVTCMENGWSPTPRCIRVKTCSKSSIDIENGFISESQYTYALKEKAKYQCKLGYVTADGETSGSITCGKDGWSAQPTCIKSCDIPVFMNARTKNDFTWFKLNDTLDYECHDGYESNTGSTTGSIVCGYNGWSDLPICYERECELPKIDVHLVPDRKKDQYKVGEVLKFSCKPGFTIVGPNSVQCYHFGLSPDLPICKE
Described as above. The following applies: both partners purified.

“plasma purified human factor H (from UniProt P08603 19-1231) (natural protein)”: in assay [1], the Kd came out at 161 nM; the ka1 (binding step, two-state model) was 53600 M⁻¹ s⁻¹; the ka2 (forward rate, conformational change step) is 0.00797 s⁻¹; the kd1 (binding step, two-state model) amounted to 0.0358 s⁻¹. Moreover, the kd2 (backward rate, conformational change step) in assay [1] worked out at 0.00254 s⁻¹. For the same molecule, the Kd in assay [2] came out at 147 nM. Besides, in assay [3], the Kd came to 32.9 nM; the ka1 (binding step, two-state model) was 60000 M⁻¹ s⁻¹; the ka2 (forward rate, conformational change step) worked out at 0.007 s⁻¹; the kd1 (binding step, two-state model) turned out to be 0.0158 s⁻¹. Moreover, the kd2 (backward rate, conformational change step) in assay [3] stood at 0.0009 s⁻¹.

B1: recombinant His-tagged VWF-A2 (amino acids G1481-R1668), purified from transfected E. coli (domain or fragment)
chain: GLLGVSTLGPKRNSMVLDVAFVLEGSDKIGEADFNRSKEFMEEVIQRMDVGQDSIHVTVLQYSYMVTVEYPFSEAQSKGDILQRVREIRYQGGNRTNTGLALRYLSDHSFLVSQGDREQAPNLVYMVTGNPASDEIKRLPGDIQVVPIGVGPNANVQELERIGWPNAPILIQDFETLPREAPDLVLQR
notes: von Willebrand factor A2 domain, amino acids G1481-R1668; source: E. coli, purified (Ni-NTA)
With B1, in assay [4], the binding result is “binds”.

B2: recombinant His-tagged VWF-A2 (amino acids P1480-G1672), purified from transfected HEK 293 cells (domain or fragment)
chain: PGLLGVSTLGPKRNSMVLDVAFVLEGSDKIGEADFNRSKEFMEEVIQRMDVGQDSIHVTVLQYSYMVTVEYPFSEAQSKGDILQRVREIRYQGGNRTNTGLALRYLSDHSFLVSQGDREQAPNLVYMVTGNPASDEIKRLPGDIQVVPIGVGPNANVQELERIGWPNAPILIQDFETLPREAPDLVLQRCCSG
notes: von Willebrand factor A2 domain, amino acids P1480-G1672, in pSecTag2B His-tag vector; also called His-tagged A2; source: HEK 293, purified (Ni-NTA)
Regarding B2, the binding result in assay [4] was “binds”.

B3: GST-VWF-A2 fusion protein (amino acids P1480-G1672) (domain or fragment)
chain: PGLLGVSTLGPKRNSMVLDVAFVLEGSDKIGEADFNRSKEFMEEVIQRMDVGQDSIHVTVLQYSYMVTVEYPFSEAQSKGDILQRVREIRYQGGNRTNTGLALRYLSDHSFLVSQGDREQAPNLVYMVTGNPASDEIKRLPGDIQVVPIGVGPNANVQELERIGWPNAPILIQDFETLPREAPDLVLQRCCSG
notes: von Willebrand factor A2 domain, amino acids P1480-G1672, in pGEX-2T GST vector; also called GST-A2; recombinant VWF-A2; source: E. coli, purified (glutathione agarose beads)
Turning to B3, the binding result in assay [5], in assay [6] and in assay [7] was “binds” each time.
